The values that follow come from PMC3483405.

This assay concerns the target Homo sapiens selenoprotein S U188C (human) (UniProt Q9BQE4). Briefly: SEC. Background: SEC sorts molecules by how far they enter the pores of the column.

Usually stoichiometry N stands for the number of molecules, sites or subunits per partner or assembly. The substance “Homo sapiens selenoprotein S U188C (from UniProt Q9BQE4 1-189) (natural protein)” displayed a stoichiometry N of 2.
